Assay results from PMC3391165.

Molecular target: zebrafish ΔP2X4-B (zebrafish) (UniProt F8W463)
Assay: crystal structure

stoichiometry N: 3
Substance: zebrafish ΔP2X4-B (from UniProt F8W463 1-389) (receptor)
